Experimental data from publication PMC8610991, “The encapsulin from Thermotoga maritima is a flavoprotein with a symmetry matched ferritin-like cargo protein” (Scientific Reports, 2021).
Several values for one entry are separate records, joined by “and”; a condition that tells them apart may be missing. Equal entries are not always repeated.

How the values were obtained:
T. maritima encapsulin [1] = biological target: T1, T. maritima encapsulin (Thermotoga maritima, UniProt Q9WZP2); assay: LC-MS of flavin released from purified encapsulin; format: binding; conditions: co-purified minor species; exact flavin composition not determined
T1 construct: gene enc; encapsulin shell, codon-optimised gene in pET14, E. coli BL21(DE3), co-expressed with His6-tagged FLP cargo (sub-stoichiometric loading); T = 1 icosahedral shell of 12 pentamers; flavin site between two shell subunits; with Encapsulated ferritin-like protein (FLP cargo)
T1 sequence (Q9WZP2 whole entry): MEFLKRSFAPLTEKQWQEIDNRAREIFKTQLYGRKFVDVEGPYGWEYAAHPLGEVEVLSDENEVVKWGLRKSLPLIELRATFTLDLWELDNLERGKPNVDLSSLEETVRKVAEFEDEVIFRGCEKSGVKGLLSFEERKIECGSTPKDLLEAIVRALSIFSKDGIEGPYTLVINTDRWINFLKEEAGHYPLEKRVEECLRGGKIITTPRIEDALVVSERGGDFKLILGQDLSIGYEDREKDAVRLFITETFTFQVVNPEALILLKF

T. maritima encapsulin [2] = biological target: T1, T. maritima encapsulin; assay: cryo-EM structure […] A; absorbance, LC-MS of released flavin; format: binding; conditions: co-purified flavin; pi-stacking with W90 between two shell subunits; fluorescence quenched until denatured
[3] = biological target: the molecule itself; assay: cryo-EM structure; FLP-loaded encapsulin, co-expressed in E. coli and purified as a complex; 2 mg/mL, 0.05% NP-40; 2D classes, I1 reconstruction of the shell (3.3 Å), C1 reconstruction, symmetry expansion and focused classification of the FLP at a pentameric vertex (shell ~3.5 Å, FLP ~7 Å)
[4] = biological target: Thermotoga maritima encapsulin shell protein (Thermotoga maritima) (UniProt Q9WZP2); assay: as above

Cc1cc2nc3c(=O)[nH]c(=O)nc-3n(C[C@H](O)[C@H](O)[C@H](O)CO)c2cc1C [riboflavin]
LC-MS of flavin released from purified encapsulin (T. maritima encapsulin [1]): Both FMN and riboflavin were present as the major and minor peaks respectively

Cc1cc2nc3c(=O)[nH]c(=O)nc-3n(C[C@H](O)[C@H](O)[C@H](O)COP(=O)(O)O)c2cc1C [FMN, flavin mononucleotide]
cryo-EM structure 3.3 A; absorbance, LC-MS of released flavin (T. maritima encapsulin [2]): additional density near W90 that corresponds to a flavin undergoing π–stacking with the tryptophan

B1: Thermotoga maritima ferritin-like protein (FLP) cargo (natural protein, UniProt Q9WZP3 1-114, looked up)
chain: MADQYHEPVSELTGKDRDFVRALNSLKEEIEAVAWYHQRVVTTKDETVRKILEHNRDEEMEHAAMLLEWLRRNMPGWDEALRTYLFTDKPITEIEEETSGGSENTGGDLGIRKL
notes: ferritin-like protein, native cargo of the Thermotoga maritima encapsulin; Decamer with fivefold symmetry; The map of the cargo (EMD-24002) has no atomic model of its own; a homologous FLP crystal structure (PDB 5DA5) was docked as a rigid body; also called cargo protein; ferritin-like cargo protein; copies: 10
stoichiometry N [3]: 10
stoichiometry N [4]: 3 FLPs/shell and 5 FLPs/shell and 4 FLPs/shell
stoichiometry N (FLPs per encapsulin) [4]: 2
